In assay [1] the target is T1, full-length GLI1^G122A,H123A, 35S-radiolabeled (human, UniProt P08151-1 1-1106, G122A | H123A, [35S]-methionine label).
T1 construct: human GLI1, full length (1,106 residues); also called G122A, H123A double substitution; source: in vitro transcription/translation, partially purified by ammonium sulfate precipitation
T1 sequence (looked up): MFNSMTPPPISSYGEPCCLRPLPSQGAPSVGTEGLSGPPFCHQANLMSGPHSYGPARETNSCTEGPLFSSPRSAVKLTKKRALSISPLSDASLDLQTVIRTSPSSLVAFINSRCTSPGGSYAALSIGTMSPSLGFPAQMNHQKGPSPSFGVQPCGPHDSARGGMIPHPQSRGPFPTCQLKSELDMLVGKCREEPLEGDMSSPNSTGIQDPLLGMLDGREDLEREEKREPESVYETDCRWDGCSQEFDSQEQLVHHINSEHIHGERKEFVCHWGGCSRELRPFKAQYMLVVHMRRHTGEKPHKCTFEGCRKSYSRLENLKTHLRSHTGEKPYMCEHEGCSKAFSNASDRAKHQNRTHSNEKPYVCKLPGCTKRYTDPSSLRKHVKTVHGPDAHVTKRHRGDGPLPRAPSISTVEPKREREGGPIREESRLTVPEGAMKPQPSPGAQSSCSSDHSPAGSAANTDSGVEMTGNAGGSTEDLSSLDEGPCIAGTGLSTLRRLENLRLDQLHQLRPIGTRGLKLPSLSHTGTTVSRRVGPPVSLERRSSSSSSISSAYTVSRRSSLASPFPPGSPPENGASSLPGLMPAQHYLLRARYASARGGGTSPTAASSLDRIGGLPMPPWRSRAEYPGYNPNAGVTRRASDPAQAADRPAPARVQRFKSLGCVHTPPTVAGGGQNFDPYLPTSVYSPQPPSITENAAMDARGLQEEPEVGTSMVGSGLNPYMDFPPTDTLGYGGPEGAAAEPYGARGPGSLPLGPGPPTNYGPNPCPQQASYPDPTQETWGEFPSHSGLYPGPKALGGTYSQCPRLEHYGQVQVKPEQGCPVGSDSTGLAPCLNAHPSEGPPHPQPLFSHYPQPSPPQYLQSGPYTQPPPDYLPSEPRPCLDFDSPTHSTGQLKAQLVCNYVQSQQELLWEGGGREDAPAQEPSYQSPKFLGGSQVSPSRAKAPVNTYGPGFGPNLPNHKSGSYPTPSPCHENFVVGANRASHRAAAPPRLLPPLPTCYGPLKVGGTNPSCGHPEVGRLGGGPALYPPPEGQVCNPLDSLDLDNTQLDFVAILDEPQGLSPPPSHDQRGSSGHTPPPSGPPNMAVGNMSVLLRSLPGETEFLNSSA
Briefly: pull-down; purified GST-SUFU, 1.25-80 nM, captured on glutathione-Sepharose beads; ∼1 pmol 35S-GLI1 (1-232 or full length) in 200 μl; 15 min at 30°C, then 1 h at room temperature; Binding Buffer + 1 mg/ml BSA; bound GLI1 quantified by SDS-PAGE and Phosphorimager; Kd from binding isotherms. The settings on record: one partner purified.

The target of assay [2] is T2, full-length GLI1, wild type, 35S-radiolabeled (human, UniProt P08151-1 1-1106, [35S]-methionine label).
T2 construct: human GLI1, full length (1,106 residues); the plasmid used for in vitro translation of full-length GLI1 is not described; also called full-length GLI1 protein; FL-GLI1; source: in vitro transcription/translation, partially purified by ammonium sulfate precipitation
T2 sequence (looked up): T1 sequence (looked up) with A122G, A123H
The description is as above. The settings on record: one partner purified.

Where a chain is given by its changes, count along the chain named.

B1: GST-SUFU (fusion of GST to full-length human SUFU) (natural protein, UniProt Q9UMX1-1 1-484, looked up)
chain: MAELRPSGAPGPTAPPAPGPTAPPAFASLFPPGLHAIYGECRRLYPDQPNPLQVTAIVKYWLGGPDPLDYVSMYRNVGSPSANIPEHWHYISFGLSDLYGDNRVHEFTGTDGPSGFGFELTFRLKRETGESAPPTWPAELMQGLARYVFQSENTFCSGDHVSWHSPLDNSESRIQHMLLTEDPQMQPVQTPFGVVTFLQIVGVCTEELHSAQQWNGQGILELLRTVPIAGGPWLITDMRRGETIFEIDPHLQERVDKGIETDGSNLSGVSAKCAWDDLSRPPEDDEDSRSICIGTQPRRLSGKDTEQIRETLRRGLEINSKPVLPPINPQRQNGLAHDRAPSRKDSLESDSSTAIIPHELIRTRQLESVHLKFNQESGALIPLCLRGRLLHGRHFTYKSITGDMAITFVSTGVEGAFATEEHPYAAHGPWLQILLTEEFVEKMLEDLEDLTSPEEFKLPKEYSWPEKKLKVSILPDVVFDSPLH
notes: human SUFU, full length (residues 1-484), BamHI-SUFU-SalI cassette in pGEX-LB; pGEX-LB carries a Gly-Gly-Gly-Gly-Gly-Ser-Gly stretch between GST and the fused protein; also called full-length GST-SUFU; source: Escherichia coli, purified (glutathione-Sepharose); not shown: GST, N-terminal, kept
As for B1, the figures for the Kd in assay [1] and in assay [2] were 120 ± 35 nM and 14 ± 4 nM, respectively.

The values above are taken from PMC9279676, “ERK2 MAP kinase regulates SUFU binding by multisite phosphorylation of GLI1” (Life Science Alliance, 2022).
